In the supplement of paper PMC9170038:

Tests used:
MS2 coat protein [1] = experiment: apparent KD of MS2 coat protein, switch OFF state (with FMN for OFF switches, without FMN for ON switches); designed switch direction (-1 OFF switch, 1 ON switch): -1; higher = weaker reporter binding; conditions: FMN input: 0 or 200 uM; Eterna round: R93 (includes R88 designs)
How it was run: (§1)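 Titration buffer: 100 mM Tris-HCl pH 7.5, 80 mM KCl, 4 mM MgCl2, without or with constant ligand. Designed RNA switches transcribed on-chip from Illumina sequencing clusters received SNAP-549-labelled MS2 coat protein in twofold steps from 0.7 or 1.5 nM to 3 µM. Apparent KD is the median per design of fits to normalised cluster binding curves.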

MS2 coat protein [2] = experiment: apparent KD of MS2 coat protein, switch ON state; designed switch direction (-1 OFF switch, 1 ON switch): -1; higher = weaker reporter binding; conditions: FMN input: 0 or 200 uM; Eterna round: R93 (includes R88 designs)
How it was run: as §1

Sequence | apparent KD of MS2 coat protein (MS2 coat protein [1]) [nM] | apparent KD of MS2 coat protein (MS2 coat protein [2]) [nM]
AAAAAGUGAGGAUAUGCGAAGGCGUCUGAUAGACGAGGCUAGCAGAAGGCACAUGAGGAUCACCCAUGUGGGAG [Mat - Exclusion 4 - Eli mod - D93] | 148 | 71.5
AACUAACAUGAGGAUCACCCAUGUCAGGAUAUGCAUCGAUCGAUCGAUCGAUCGAUCAGCAGAAGGGACAAAAA [Amethyst 92] | 37 | 22.3
GGUUUGCUAGGAUAUACAUGAGGAUCACCCAUGUGAGAGAAAAAAGUGAGAAAGAAAAGUAGAAGGAGCGGACG [salish99-ex3-122] | 66.4 | 68.2
AAAAAACAUGAGGAUCACCCAUGUGAGGAUAUCCUGGUUGAAAAAAAAAAAACAACCAGGAGAAGGCACAAAAA [EXCL-I] | 57.8 | 45.2
AAAAGGAUAGGAUAUACAUGAGGAUCACCCAUGUGAAAAAAUAAAAAAAAAAAAAAAAGUAGAAGGGUCAAAAA [LROPPY Exclusion 3 - v05_deltaG=3.6] | 53.7 | 40.2
CUCAAGUGAGGAUAUACAAAAAGUAAAUAAGUAAAACAAAAGUAGAAGGCACAUGAGGAUCACCCAUGUAAAUA [JR_Exc004_Sub301] | 63.1 | 45.5
AAGAUGUCAGGAUAUACAUAAAUAAAAAAUUAUGUUAAAACACAUGAGGAUCACCCAUGUAGAAGGGACAUCAA [AJ 7] | 15.5 | 17.2
AGUUGGCGAGGAUAUACAUGAGGAUCACCCAUGUGAGAGAUAAAAGUGAGAAAGAAAAGUAGAAGGCGCUCACA [JL Lego Mod 15] | 60.1 | 107
AGCAGUACAGGAUAUACAUGAGGAUCACCCAUGUGAAAAUAAAGUGGCGUACCACAAAGUAGAAGGGUACUGCA [Mat - Exclusion 3 - JL mod - D31] | 104 | 34.2
GAAAAACAUGAGGAUCACCCAUGUCAGGAUAUGCAGAAAAAGAAAAAAAGAAAAGAAAGUAGAAGGGACAAAAG [Mat - Same state - Mayanna Mod - D106] | 28.6 | 29.4
GGUUGGCGAGGAUAUACAUGAGGAUCACCCAUGUGAGAGAAAAAAGUGAGGAGGAGAAGUAGAAGGCGCUGACG [salish99-ex3-17] | 3.7 | 18.9
GAUCCACAUGAGGAUCACCCAUGUGAGGAUAUCGUGCAGAAAAAAAAAAAAAACUGCACGAGAAGGCACAUGGG | 13 | 19.4
AAAAAACAUGAGGAUCACCCAUGUGAGGAUAUGCAAAACCCAUAUAAAAAGGGAAAAAGUAGAAGGCGCAAAAA [wbt round 1 mod 9] | 17.4 | 20.5
AACUGACAUGAGGAUCACCCAUGUCAGGAUAUGACUUCAAAAAAAAAAAAAAAUGAUGUCAGAAGGGACAUGGA [Design 64: Sub-opt MB] | 20.7 | 19.2
CUCUAGUGAGGAUAUGGAAGAAAAGAAAAGAAAGAAAAGAACCAGAAGGCACAUGAGGAUCACCCAUGUAAGAA [EteRNA is fun!] | 66 | 47.7
GGUUGGCAAGGAUAUACAUGAGGAUCACCCAUGUGAGAGAAAAAAGUGAGAAAGAAAAGUAGAAGGUGUUGACG [salish99-ex3-75] | 53 | 26.8
CAAAGGUGAGGAUAUACAAGGAUAUGACGAAAGUCAUAAAAACAUGAGGAUCACCCAUGUAGAAGGCACCACAA [E2 64% 4] | 43.7 | 33.9
GCUUGGCUAGGAUAUACAUGAGGAUCACCCAUGUGAGAGAAAAAAGUGAGAAAGAAAAGUAGAAGGAGUUGAGG [salish99-ex3-82] | 39.7 | 46.2
AAGAAGGUAGGAUAUACAUGAGGAUCACCCAUGUAAAAGAAAGAAAAGGGAAAGAAAAGUAGAAGGACCAAGAA [Kheperkheperure Ay] | 44.3 | 32.9
AAGAACUGAGGAUAUACAUGAGGAUCACCCAUGUAAAAGAAAGAAAAGGGAAAGAAAAGUAGAAGGCAGAAGAA [Nebmaatre Amenhotep III] | 42.8 | 36.9

Sequence | apparent KD of MS2 coat protein (MS2 coat protein [1]) [nM] | apparent KD of MS2 coat protein (MS2 coat protein [2]) [nM]
AGCUAGUGAGGAUAUACGAACAUGUCAAAAGACUGUAAGGGACAUGAGGAUCACCCAUGUAGAAGGCACUAGCA [Diamond 55] | 294 | 55.7
AGCUAGUCAGGAUAUACGAACAUGUAAAAAGACGUGAAGGGACAUGAGGAUCACCCAUGUAGAAGGGACUAGCA [74%, Web mod - With 1 less C's] | 108 | 33.9
GCUUGCGAAGGAUAUACAUGAGGAUCACCCAUGUGAGAGAAAAAAGUGAGAAAGAAAAGUAGAAGGUCGUGAGG [salish99-ex3-95] | 72.8 | 28.3
AACUGACAUGAGGAUCACCCAUGUCAGGAUAUGACUUCGAAAAAUAAAAUAAACGAUGUCAGAAGGGACAUGGA [Design 67: Sub-opt NB] | 41.1 | 21.5
AGCAAGUUAGGAUAUGCGAAGUCAGGACACACACUGACAAAGCAGAAGGAACAUGAGGAUCACCCAUGUAAGCA [Mat - Exaclusion 4 - Eli mod - D64] | 20.8 | 29.9
AAAGAUACAGGAUAUACAUGAGGAUCACCCAUGUGGAAUCUAAAAUGGGAAAAAGAAAGUAGAAGGGUAUAAAA [Ex 3 May 39] | 63.5 | 34
GGUUGGCGAGGAUAUACAUGAGGAUCACCCAUGUGAGAGAAAAAAGUGUGAAAGAAAAGUAGAAGGCGCUGACG [salish99-ex3-54] | 13 | 31
GAAAAGUCAGGAUAUGUGGAAAAAAUAAAAAAAAUAAAAACACAGAAGGGACAUGAGGAUCACCCAUGUAAAAA [Mat - Exclusion 4 - Mayanna - D140] | 39 | 68.3
AAAAAGUGAGGAUAUACGCUGAAGAGUAGACACAACCAGGCGUAGAAGGCACAUGAGGAUCACCCAUGUCCAAA [Ex4 Malc#10] | 41.2 | 21.2
GGUUGAUGAGGAUAUACAUGAGGAUCACCCAUGUGAGAGAAAAAAGUGAGAAAGAAAAGUAGAAGGCAUUGACG [salish99-ex3-60] | 69.4 | 37.7
UCCUGACAUGAGGAUCACCCAUGUCAGGAUAUAGUAUGAAAAAAAAAAAAAAAAAAUACUAGAAGGGACAUGGG [Design 12: Super Stable Short Helix 3] | 21.6 | 29.2
AAGAACAGAGGAUAUACAUGAGGAUCACCCAUGUAAAAGAAAGAAGGGAAAGAGAAAAGUAGAAGGCUGAAGAA [Titaru] | 31.7 | 25
UCCGCACAUGAGGAUCACCCAUGUCAGGAUAUACAAGAAAAUCAGGCUAAUGCCUGAAGUAGAAGGGACGAGGA [Armaingean] | 16 | 27.7
AAGAAAGAAGGAUAUACAAGGAAGAAAGAAAAGAAAAGAAAACAUGAGGAUCACCCAUGUAGAAGGUCUUAGAA [EteRNA is fun!] | 13.8 | 19.5
AAGUUGACAGGAUAUACUUGGGCAACAAAUAAACUAAUAUAACAUGAGGAUCACCCAUGUAGAAGGGUCAGAAA [JR_Exc002_Sub207] | 56.4 | 46.3
AGCUAGUGAGGAUAUACAAGAAUAUAAACAAAAAUGAAGGGACAUGAGGAUCACCCAUGUAGAAGGCACUAGCA [Diamond 72] | 221 | 55.2
AAGAAGUGAGGAUAUCGAAGACAGACGAAAAGUCUGUCAAGCGAGAAGGCACAUGAGGAUCACCCAUGUGGAAG [Mat - Exaclusion 4 - Eli mod - D80] | 33.4 | 31.8
GGAAAACAUGAGGAUCACCCAUGUAAGGAUAUGCUAAGGAAGGAAAAAAACCCACCAGGCAGAAGGUACUAAAG [Janelle Amethyst 18 Mod 4 - Jieux - Exclusion 1] | 47.2 | 23.1
AAGUUAUUAGGAUAUACUUGUGCGAUCCAUACGUUGAUAUUACAUGAGGAUCACCCAUGUAGAAGGAAUAAAAA [JR_Exc002_Sub414] | 45.2 | 48.2
AGGGAGUAAGGAUAUCGGAAAGGACACGAAAGUGACAAAGACGAGAAGGUACAUGAGGAUCACCCAUGUAAAAA [milkweed 24] | 21.6 | 32.2
